# In patent US20240124575A1 (SIMCERE ZAIMING PHARMACEUTICAL, published 2024):
# Like-named read-outs stand apart in the source and are kept apart here.
# Legend:
# [1] = target: T1, human CD33 on CHO-K1 cells (CHO-K1-human CD33) (human, UniProt P20138 18-364); assay: FACS, CHO-K1-human CD33 cells
# T1 construct: whole, on cells; stably transfected CHO-K1 clones; also called CHO-K1-hCD33-B8; CHO-K1-human CD33 B8
# Experimental: (§1) The desired cells were expanded to a logarithmic growth phase in a T-75 cell culture flask. For adherent cells CHO-K1, the culture medium was removed by pipetting, and the cells were washed twice with a PBS buffer, digested with trypsin, and washed twice with a PBS buffer again after the digestion was stopped. For suspension cells U937, the medium supernatant was discarded by direct centrifugation, and the cell pellet was washed twice with PBS, and then incubated with a buffer containing human Fc Block (purchased from BD, Cat. No. 564220) for 15 min. After the cells obtained in the last step were subjected to cell counting, the cell pellet was resuspended to 2×10⁶ cells/mL with a blocking solution [PBS+2% (w/w) BSA] and added to a 96-well FACS reaction plate at 50 μL/well. The VHH-Fc antibody (a sample to be tested) was added at 50 μL/well, and the plate was incubated on ice for 2 h. […] After the plate was centrifuged and washed 5 times with a PBS buffer, the results were assayed and analyzed by FACS (FACS Canto™, purchased from BD Biosciences), so as to obtain the mean fluorescence intensity (MFI) of cells. Then, analysis was performed by software (GraphPad Prism8), data were fitted, and EC50 values were calculated.
# human CD33-C2-his [2] = target: T2, human CD33-C2-his (human, UniProt P20138 136-260); assay: ELISA on coated human CD33-C2-his
# T2 construct: expressed in HEK293E; also called hCD33-C2-his; human CD33 protein C2-domain; not shown: His tag
# T2 sequence (P20138 other isoform, or with tags, fused parts or gaps limits assumed): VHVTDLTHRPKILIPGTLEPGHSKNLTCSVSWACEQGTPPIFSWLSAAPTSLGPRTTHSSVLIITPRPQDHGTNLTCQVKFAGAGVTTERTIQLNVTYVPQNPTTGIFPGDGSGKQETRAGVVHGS
# Excerpt: (§2) Plates were coated with human CD33-V-his (membrane distal end) and human CD33-C2-his (membrane proximal end), respectively, according to the ELISA method in Example 8. The VHH humanized antibodies were classified based on the membrane distal end and the membrane proximal end, as shown in FIGS. 20A-20J and Table 44, which allowed the classification of the VHH humanized antibodies into the following classes: […]
# [3] = target: T3, human CD33 on U937 cells (endogenous) (human, UniProt P20138 18-364); assay: FACS, U937 cells
# T3 construct: whole, on cells
# T3 sequence (P20138 18-364): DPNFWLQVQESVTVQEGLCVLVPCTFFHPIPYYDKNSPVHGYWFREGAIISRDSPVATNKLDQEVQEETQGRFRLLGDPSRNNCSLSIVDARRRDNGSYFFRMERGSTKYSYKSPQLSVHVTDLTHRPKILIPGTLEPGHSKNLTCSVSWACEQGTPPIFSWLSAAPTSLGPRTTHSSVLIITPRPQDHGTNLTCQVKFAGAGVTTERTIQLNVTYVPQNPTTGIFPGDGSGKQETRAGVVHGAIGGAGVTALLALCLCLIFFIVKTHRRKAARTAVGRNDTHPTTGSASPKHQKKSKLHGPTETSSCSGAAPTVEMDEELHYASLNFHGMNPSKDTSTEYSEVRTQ
# Experimental: as §1
# monkey CD33-His protein = target: T4, monkey CD33-His protein (monkey); assay: ELISA on coated monkey CD33-his
# T4 construct: also called monkey CD33 protein
# [4] = target: T5, human CD33-His (extracellular domain Asp 18-His 259) (human, UniProt P20138 18-259); assay: competitive ELISA vs coated S006-NB147-25 3ug/mL; soluble 25ug/ml
# T5 construct: range 18-259; bought protein; also called hCD33-his; human CD33 protein; not shown: His tag
# T5 sequence (P20138 18-259 limits assumed): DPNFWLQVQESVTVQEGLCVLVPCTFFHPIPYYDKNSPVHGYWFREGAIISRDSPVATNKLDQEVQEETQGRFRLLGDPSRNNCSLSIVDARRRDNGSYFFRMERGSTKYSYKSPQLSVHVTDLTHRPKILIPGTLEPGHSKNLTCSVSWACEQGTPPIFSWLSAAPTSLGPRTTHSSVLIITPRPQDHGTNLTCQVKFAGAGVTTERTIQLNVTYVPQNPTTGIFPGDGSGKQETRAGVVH
# human CD33-C2-his [5] = target: T2, human CD33-C2-his; assay: ELISA on coated human CD33-C2-his; remark: listed apart in the source
# human CD33-C2-his [6] = target: T2, human CD33-C2-his; assay: ELISA on coated human CD33-C2-his; remark: listed apart in the source
# Excerpt: as §2
# human CD33-his protein [7] = target: T6, human CD33-his protein (human, UniProt P20138 18-259); assay: competition ELISA, coated human CD33-his, vs Biotin-C33B904 at EC80; antibody 250.00 nM
# T6 construct: range 18-259; bought protein; also called hCD33-his; recombinant human CD33-his; not shown: His tag
# T6 sequence (P20138 18-259 limits assumed): as above
# Experimental: (§3) The plate was sealed with a plastic film and incubated at 4° C. overnight, washed twice with PBS the next day, and a blocking solution [PBS+2% (w/w) BSA] was added for blocking at room temperature for 2 h. The blocking solution was discarded, and VHH-Fc antibody or negative control antibody serially diluted from 100 nM was added at 50 μL/well. After incubation at 37° C. for 2 h, the plate was washed 3 times with PBS. A secondary antibody labeled with HRP (horseradish peroxidase) (purchased from Sigma, Cat. No. A0170) was added. After incubation for 1 h at 37° C., the plate was washed 5 times with PBS. A TMB substrate was added at 50 μL/well. After incubation at room temperature for 10 min, a stop solution (1.0 N HCl) was added at 50 μL/well. The OD450 nm values were read on an ELISA plate reader (Multimode Plate Reader, EnSight, purchased from Perkin Elmer). The assay results for the binding of the VHH-Fc to hCD33-his by ELISA are shown in FIGS. 7A and 7B and Tables 11 and 12. […] The IgG control was hIgG1, and the data in the table are OD450 nm values.
# (§4) ELISA plates were coated with 2 μg/mL human CD33-his protein according to the method in Example 5.1; the Biotin-C331B904 antibody was subjected to a gradient dilution from 15 μg/mL, and EC80 values (0.18 μg/mL) were calculated. […] OD_{450 nm} values were read using an ELISA plate reader (Insight, purchased from PerkinElmer). […]
# human CD33-his protein [8] = target: T6, human CD33-his protein; assay: competition ELISA, coated human CD33-his, vs Biotin-C33B904 at EC80; antibody 7.81 nM
# Experimental: as §3, §4
# human CD33-his protein [9] = target: T6, human CD33-his protein; assay: competition ELISA, coated human CD33-his, vs Biotin-C33B904 at EC80; antibody 0.98 nM
# Experimental: as §3, §4
# human CD33-his protein [10] = target: T6, human CD33-his protein; assay: competition ELISA, coated human CD33-his, vs Biotin-C33B904 at EC80; antibody 31.25 nM
# Experimental: as §3, §4
# T1 sequence (P20138 18-364): as the sequence (P20138 18-364) above
EC50 [1] [nM],Max MFI [1] [MFI],EC50 (read off the curve) (human CD33-C2-his [2]) [nM],EC50 [3] [nM],Max MFI [3] [MFI],EC50 (read off the curve) (monkey CD33-His protein) [nM],inhibition rate [4] [%],EC50 (read off the curve) (human CD33-C2-his [5]) [nM],EC50 (read off the curve) (human CD33-C2-his [6]) [nM],OD450 (Biotin-C33B904 signal) (human CD33-his protein [7]),OD450 (Biotin-C33B904 signal) (human CD33-his protein [8]),OD450 (Biotin-C33B904 signal) (human CD33-his protein [9]),OD450 (Biotin-C33B904 signal) (human CD33-his protein [10]),Binder
4.53,12400,~0.2,12.6,682,~0.2,99,~0.3,~0.1,–,–,–,–,"C33B904 hIgG1 (antibody, V domains shown, intact human IgG1; variable regions from US20190382481A1; also called C33B3904; C331B904) VH: EVQLVESGGGLVQPGRSLRLSCAASGFTFDDYAMHWVRQAPGKGLEWVSGIGWSGGSIVYADSVKGRFTISRDNAKNSLYLQMNSLRAEDTALYYCAKDSPYGDFFDYWGQGTLVTVSS VL: DIVMTQSPDSLAVSLGERATINCKSSQTVFYSSNNKNYLAWYQQKPGQPPKLLISWASTRKSGVPDRFSGSGSGTDFTLTVSSLQAEDVAVYYCQHYYSTPYTFGQGTKLEIKR"
–,–,–,–,–,–,–,–,–,0.1,1.72,2.31,0.46,"C33B904 (antibody, human IgG1, kappa, V domains shown, control antibody, intact human IgG1 form; variable regions from US20190382481A1; also called C33B904 hIgG1; C331B904) VH: EVQLVESGGGLVQPGRSLRLSCAASGFTFDDYAMHWVRQAPGKGLEWVSGIGWSGGSIVYADSVKGRFTISRDNAKNSLYLQMNSLRAEDTALYYCAKDSPYGDFFDYWGQGTLVTVSS VL: DIVMTQSPDSLAVSLGERATINCKSSQTVFYSSNNKNYLAWYQQKPGQPPKLLISWASTRKSGVPDRFSGSGSGTDFTLTVSSLQAEDVAVYYCQHYYSTPYTFGQGTKLEIKR"
